{
  "source": "patent US20260158153A1",
  "about": "“BCMA MONOCLONAL ANTIBODY AND THE ANTIBODY-DRUG CONJUGATE” (priority 2021, published 2026)",
  "molecules": {"B1": {"name": "Humanized antibody hu5D2 (antibody, human IgG1, kappa, V domains shown)", "VH": "QVQLVQSGAEVVKPGASVKMSCKASGYTFTSFLIHWVKQAPGQGLEWIGFIIPGNGGTKYNQKFQGKATLTSDTSSSTAYMELSSLRSEDSAVYYCARYDGSFEGYFDVWGQGTTLTVSS", "VL": "DVVMTQSPLSLPVSLRQPASISCRSSQSLVHSDGNTYLHWYLQKPGQSPRLLIYKVSNRDSGVPDRFSGSGSGTDFTLKISRVEAEDLGVYFCSQSTHWPWTFGQGTKLEIKR", "modifications": "N-linked glycan at Asn300", "notes": "also called Hu5D2 antibody; BCMA antibody"}, "B2": {"name": "c5D2 (antibody, human IgG1, kappa, V domains shown)", "VH": "EVQLQQSGPELVKPGASVKMSCKASGYTFTSFLIHWVKQKPGQGLEWIGFIIPYNDGTKYNEKFKGKATLTSDKSSSTAYMELSSLTSEDSAVYYCARYDGSFEGYFDVWGAGTTLTVSS", "VL": "DVLMTQTPLSLPVSLRDQASISCRSSQSLVHSDGNTYLHWYLQKPGQSPKLLIYKVSNRFSGVPDRFSGSGSGTDFTLKISRVEAEDLGVYFCSQSTHVPWTFGGGTKLEIKT", "notes": "VH/VL of BCMA-A2-6H4-5D2 fused to human IgG1 and kappa constant domains; also called chimeric antibody c5D2"}, "B3": {"name": "hu5D2-Tub (antibody, human IgG1, kappa, V domains shown)", "VH": "QVQLVQSGAEVVKPGASVKMSCKASGYTFTSFLIHWVKQAPGQGLEWIGFIIPGNGGTKYNQKFQGKATLTSDTSSSTAYMELSSLRSEDSAVYYCARYDGSFEGYFDVWGQGTTLTVSS", "VL": "DVVMTQSPLSLPVSLRQPASISCRSSQSLVHSDGNTYLHWYLQKPGQSPRLLIYKVSNRDSGVPDRFSGSGSGTDFTLKISRVEAEDLGVYFCSQSTHWPWTFGQGTKLEIKR", "modifications": "conjugated to a tubulysin analog payload; sites and drug/antibody ratio of the lot used in Fig. 3 are not given", "notes": "Antibody-drug conjugate of hu5D2; also called hu5D2 conjugated ADC; hu5D2-tub196"}, "B4": {"name": "J6M0 (antibody, V domains shown)", "VH": "QVQLVQSGAEVKKPGSSVKVSCKASGGTFSNYWMHWVRQAPGQGLEWMGATYRGHSDTYYNQKFKGRVTITADKSTSTAYMELSSLRSEDTAVYYCARGAIYDGYDVLDNWGQGTLVTVSS", "VL": "DIQMTQSPSSLSASVGDRVTITCSASQDISNYLNWYQQKPGKAPKLLIYYTSNLHSGVPSRFSGSGSGTDFTLTISSLQPEDFATYYCQQYRKLPWTFGQGTKLEIK"}, "B5": {"name": "Hybridoma monoclonal antibody BCMA-A2-6H4-5D2 (antibody, V domains shown)", "VH": "EVQLQQSGPELVKPGASVKMSCKASGYTFTSFLIHWVKQKPGQGLEWIGFIIPYNDGTKYNEKFKGKATLTSDKSSSTAYMELSSLTSEDSAVYYCARYDGSFEGYFDVWGAGTTLTVSS", "VL": "DVLMTQTPLSLPVSLRDQASISCRSSQSLVHSDGNTYLHWYLQKPGQSPKLLIYKVSNRFSGVPDRFSGSGSGTDFTLKISRVEAEDLGVYFCSQSTHVPWTFGGGTKLEIK", "notes": "Murine hybridoma antibody from BalB/c mice; also called clone BCMA-A2-6H4-5D2; CCTCC C2022188"}},
  "key": {"NCI-H929": {"tested_on": "NCI-H929", "test": "MTT in vitro cytotoxicity assay of BCMA antibody conjugates, NCI-H929", "format": "cell-based", "details": "Homo sapiens, 6000 cells, 96 h incubation, conjugates prepared via homogeneous conjugation process", "experimental": "(§1) The cell lines used in the cytotoxicity assays were (1). NCI-H929, JJN3, U266, and MM1S were obtained from ATCC, and 8226-2A1cell is Myeloma antigen express cells through culturing and clone-picking of ATCC's RPMI-8226. The cells were grown according to the provider manuals. To run the assay, the cells (180 μl, 6000 cells) were added to each well in a 96-well plate and incubated for 24 hours at 37° C. with 5% CO2. Next, the cells were treated with test compounds (20 μl) at various concentrations in appropriate cell culture medium (total volume, 0.2 mL). The control wells contain cells and the medium but lack the test compounds. […] MTT (5 mg/mL) was then added to the wells (20 μl) and the plates were incubated for 1.5 hr at 37° C. The medium was carefully removed and DMSO (180 μl) was added afterward. After it was shaken for 15 min, the absorbance was measured at 490 nm and 570 nm with a reference filter of 620 nm. The inhibition % was calculated according to the following equation: inhibition %=[1−(assay-blank)/(control-blank)]×100."}, "JJN-3 cell xenograft": {"tested_on": "JJN-3 cell xenograft", "test": "Antitumor activity in vivo, JJN-3 cell xenograft mouse model of multiple myeloma", "details": "FIG. 10; single dose 5 mg/Kg"}, "JJN-3": {"tested_on": "JJN-3", "test": "MTT in vitro cytotoxicity assay of BCMA antibody conjugates, JJN-3", "format": "cell-based", "details": "Homo sapiens, 6000 cells, 96 h incubation, conjugates prepared via homogeneous conjugation process", "experimental": "as §1"}, "MM1S": {"tested_on": "MM1S", "test": "MTT in vitro cytotoxicity assay of BCMA antibody conjugates, MM1S", "format": "cell-based", "details": "Homo sapiens, MM1.S, 6000 cells, 96 h incubation, conjugates prepared via homogeneous conjugation process", "experimental": "as §1"}, "[1]": {"tested_on": "multiple myeloma (MM) patients", "details": "cited from earlier work"}, "[2]": {"molecular_target": "T1, Human B cell maturation antigen (BCMA, CD269) (human, UniProt Q02223 1-54)", "T1 construct": "Flow cytometry used whole BCMA on NCI-H929 and RPMI-8226-BCMA cells; also called hBCMA", "T1 sequence": "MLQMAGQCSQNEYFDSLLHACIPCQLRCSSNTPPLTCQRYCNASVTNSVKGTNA", "test": "flow cytometry on NCI-H929 cells with endogenous BCMA, PE anti-human IgG Fc secondary, MFI against concentration"}, "[3]": {"molecular_target": "T1, Human B cell maturation antigen (BCMA, …)", "test": "ELISA, plate coated with 1 ug/ml soluble BCMA (recombinant TrxA-BCMA), OD450 against IgG concentration"}, "[4]": {"molecular_target": "T1, Human B cell maturation antigen (BCMA, …)", "test": "ELISA on recombinant TrxA-BCMA, OD450 against IgG concentration"}},
  "data": [
    {"molecule": "CC(=O)O[C@H]1C(=O)[C@@]2(C)[C@H]([C@H](OC(=O)c3ccccc3)[C@]3(O)C[C@H](OC(=O)[C@H](O)[C@@H](NC(=O)c4ccccc4)c4ccccc4)C(C)=C1C3(C)C)[C@]1(OC(C)=O)CO[C@@H]1C[C@@H]2O", "note": "[Paclitaxel]", "values": [
      {"measurement": "IC50", "setting": "NCI-H929", "value": 2.89, "unit": "nM"},
      {"measurement": "orders of the antitumor activity", "setting": "JJN-3 cell xenograft", "value": "Paclitaxel<C-385"},
      {"measurement": "IC50", "setting": "JJN-3", "value": 4.31, "unit": "nM"},
      {"measurement": "IC50", "setting": "MM1S", "value": 3.28, "unit": "nM"}
    ]},
    {"molecule": "Belantamabmafodotin", "values": [
      {"measurement": "overall response rate", "setting": "[1]; for MM", "value": 32, "unit": "%"},
      {"measurement": "patients reported ocular toxicities requiring dose adjustments, dose delays and treatment discontinuations", "setting": "[1]; patients with this ADC", "value": "over 60%"}
    ]},
    {"molecule": "B1", "values": [
      {"measurement": "EC50 (read off the curve)", "setting": "[2]", "value": "~0.05", "unit": "µg/mL"},
      {"measurement": "EC50 (read off the curve)", "setting": "[3]", "value": "~0.02", "unit": "µg/mL"}
    ]},
    {"molecule": "B2", "values": [
      {"measurement": "EC50 (read off the curve)", "setting": "[3]", "value": "~0.05", "unit": "µg/mL"}
    ]},
    {"molecule": "B3", "values": [
      {"measurement": "EC50 (read off the curve)", "setting": "[2]", "value": "~0.06", "unit": "µg/mL"}
    ]},
    {"molecule": "B4", "values": [
      {"measurement": "EC50 (read off the curve)", "setting": "[4]", "value": "~0.04", "unit": "µg/mL"},
      {"measurement": "EC50 (read off the curve)", "setting": "[3]", "value": "~0.06", "unit": "µg/mL"}
    ]},
    {"molecule": "B5", "values": [
      {"measurement": "EC50 (read off the curve)", "setting": "[4]", "value": "~0.09", "unit": "µg/mL"},
      {"measurement": "EC50 (read off the curve)", "setting": "[3]", "value": "~0.01", "unit": "µg/mL"}
    ]}
  ]
}
